Experimental findings from US11058644 (WISCONSIN ALUMNI RESEARCH FOUNDATION, dated 2021) are described below.

In the experiment the target is T1, epidermal growth factor receptor (EGFR) (UniProt P00533 25-1210, limits assumed).
T1 construct: whole, on cells; Endogenous receptor on MDA-MB-468 cells
The experiment can be described thus: blocking of Cy5-NP uptake on MDA-MB-468 cells by 2 uM free GE11, fluorescence microscopy. Here is the method: Cellular Uptake. The cellular uptake behaviors of the NPs in MDA-MB-468 TNBC cell lines were analyzed using a fluorescence microscope based on the Cy5 dye conjugated on the NPs. Cells were seeded (1×10^5 cells/ml) onto 8-well high-optical-quality plates and grown overnight. Cells were treated with either non-targeted NPs, targeted NPs, or targeted NPs with free GE11 peptide (2 µM; blocking assay) at an NP concentration of 100 µg/ml. After 2 h incubation, cells were washed with PBS twice, fixed with 4% PFA, and stained with DAPI for 4 h. Then the cells were mounted with Prolong Gold anti-fade reagent. The cellular uptake was observed using a fluorescence microscope (Nikon, Melville, N.Y.). Digital monochromatic images were acquired using NIS-Elements BR Software.
In Vitro Cellular Uptake. EGFR is overexpressed in many common types of cancer. Here, an EGFR targeting peptide, GE11, was used as an active-tumor-targeting ligand to enhance cellular uptake. MDA-MB-468, a TNBC cell line that overexpresses EGFR, was used as the model cell line. Cells were incubated with either non-targeted (i.e., NPs without GE11 conjugation) or targeted (i.e., GE11 conjugated) NPs for 2 h. Cells without any treatment were used as a negative control. Cy5 was conjugated onto the NPs. Fluorescence imaging analysis was performed to compare cellular uptake. […]

B1: GE11 peptide (YHWYGYTPQNVIGGGGC) (peptide)
peptide: YHWYGYTPQNVIGGGGC
notes: also called free GE11; EGFR targeting peptide
Consider B1, for which the binding result was “binds”.
